We go through two molecules from publication PMC7616478 (Proteins, 2024).

Assay [1] addresses C-Mad2* (closed conformation of full-length human R133A Mad2) (human) (UniProt Q13257). The assay is described as follows: 15N-CEST + 15N-CPMG relaxation dispersion NMR.
For assay [2], the target named is L5I Mad2* (L5I R133A Mad2) (human, UniProt Q13257 1-205, L5I | R133A). The assay is described as follows: NMR titration.
In assay [3] the target is C-Mad2* (closed conformation of full-length human R133A Mad2) (human, UniProt Q13257 1-205, R133A). The experiment in a line: NMR titration.
Chain of C-Mad2* (closed conformation of full-length human R133A Mad2) (Q13257 whole entry R133A): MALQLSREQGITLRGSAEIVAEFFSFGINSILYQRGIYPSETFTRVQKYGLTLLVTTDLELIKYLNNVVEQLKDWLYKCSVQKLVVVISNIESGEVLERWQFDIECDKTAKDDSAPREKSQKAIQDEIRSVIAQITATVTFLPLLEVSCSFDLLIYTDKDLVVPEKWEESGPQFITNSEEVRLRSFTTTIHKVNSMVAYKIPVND

Chain of L5I Mad2* (L5I R133A Mad2) (Q13257 whole entry L5I/R133A): as the sequence (Q13257 whole entry R133A) above, with L5I counted along it

The Kd is a measure of binding affinity in units of concentration. As a reminder, the koff is the first-order rate constant of dissociation. By kon is commonly meant the second-order rate constant of association. As for “C-Mad2* (closed conformation of full-length human R133A Mad2) (from UniProt Q13257 1-205) (natural protein)”, in assay [1], the Kd is 3.4 mM, the koff is 152 s⁻¹, the kon is 44000 M⁻¹ s⁻¹ and the population of the excited state E1 (pE1) at 133 μM turned out to be 3.5%.

Take SWYSYPPPQRAV [Mad2-binding peptide 1 (MBP1)]: the binding result in assay [2] and in assay [3] was “binds” in each case.
